# Data from PMC2658021.
# Molecular target: C-terminally FLAG-tagged HPIV3 P protein (P-FLAG) (human parainfluenza virus type 3 (HPIV3)) (UniProt P06162)
# Assay: co-IP
# Sequence of UniProt P06162 (P06162 whole entry): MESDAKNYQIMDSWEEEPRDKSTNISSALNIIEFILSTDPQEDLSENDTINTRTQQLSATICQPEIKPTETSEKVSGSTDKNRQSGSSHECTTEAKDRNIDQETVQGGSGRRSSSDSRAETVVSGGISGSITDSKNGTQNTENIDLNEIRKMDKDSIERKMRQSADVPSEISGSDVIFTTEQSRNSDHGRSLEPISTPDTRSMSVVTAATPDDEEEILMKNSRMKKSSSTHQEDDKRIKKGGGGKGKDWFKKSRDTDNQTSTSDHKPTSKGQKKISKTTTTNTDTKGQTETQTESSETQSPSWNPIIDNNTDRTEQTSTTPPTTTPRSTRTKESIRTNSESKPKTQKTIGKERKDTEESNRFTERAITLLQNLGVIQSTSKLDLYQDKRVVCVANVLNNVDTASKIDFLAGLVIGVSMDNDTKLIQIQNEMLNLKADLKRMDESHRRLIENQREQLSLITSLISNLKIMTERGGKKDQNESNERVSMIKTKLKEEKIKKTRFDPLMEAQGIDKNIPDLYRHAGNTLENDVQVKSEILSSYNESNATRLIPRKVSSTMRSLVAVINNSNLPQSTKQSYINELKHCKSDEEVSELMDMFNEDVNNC
substance,measurement,value
"L N960, non-tagged (from UniProt P12577 1-960) (domain or fragment)",binding as percent of Lwt (phosphoimager),26.8 % of Lwt
